Assays:
Details in all cases: source organism: Bacillus anthracis str. A0488
HLA-A*02:01 = assay: IEDB peptide-MHC binding, purified MHC/direct/fluorescence; filed as Kd, often an IC50 or EC50 that approximates it; ≥ and ≤ were set here for values at or beyond the usual limits of such assays
HLA-A*02:11 = assay: as above
HLA-B*18:01 = assay: as above
HLA-B*15:17 = assay: as above
HLA-B*46:01 = assay: as above
HLA-B*57:01 = assay: as above
HLA-A*02:19 = assay: as above
HLA-B*15:01 = assay: as above
HLA-B*27:03 = assay: as above
HLA-A*02:12 = assay: as above
HLA-A*02:03 = assay: as above
HLA-A*02:16 = assay: as above
HLA-A*26:01 = assay: as above
HLA-A*03:01 = assay: as above
HLA-B*39:01 = assay: as above
HLA-A*23:01 = assay: as above
HLA-A*68:02 = assay: as above
HLA-A*30:02 = assay: IEDB peptide-MHC binding, purified MHC/competitive/fluorescence; filed as Kd, often an IC50 or EC50 that approximates it; ≥ and ≤ were set here for values at or beyond the usual limits of such assays
HLA-A*66:01 = assay: as above
HLA-B*40:01 = assay: as above
HLA-B*44:02 = assay: as above
HLA-A*11:01 = assay: as above
HLA-B*14:02 = assay: as above
HLA-B*27:05 = assay: as above
HLA-A*30:01 = assay: as above
HLA-B*08:01 = assay: as above
HLA-B*51:01 = assay: as above
HLA-A*01:01 = assay: as above
HLA-B*07:02 = assay: as above
HLA-B*58:01 = assay: as above
HLA-B*53:01 = assay: as above

Measured: Kd

WDAYIPHYV
0.535 µM: HLA-B*51:01
≥ 5 µM: HLA-A*30:02 | HLA-A*66:01 | HLA-B*40:01 | HLA-B*44:02 | HLA-A*11:01 | HLA-B*14:02 | HLA-B*27:05 | HLA-A*30:01 | HLA-B*08:01 | HLA-A*01:01 | HLA-B*07:02 | HLA-B*58:01 | HLA-B*53:01
≤ 0.001 µM: HLA-A*68:02
≥ 20 µM: all other assays above
